Among the data in patent US20220259593A1, “CONTROL OF MAMMALIAN GENE DOSAGE USING CRISPR” (The Regents of the University of California, priority 2019, published 2022) are Mean relative activity values, retold here.

In the data set the test system is K562 CRISPRi cells. As to the kind of experiment: Constant region variant library pooled growth screen, K562. In kind it is cell-based, human. The note with it: sgRNA constant region variants. The text has this: We calculated relative activities for each targeting sequence:constant region pair by normalizing its phenotype to that of the targeting sequence paired with the unmodified constant region, identifying 409 constant region variants that on average conferred intermediate activity (0.1-0.9, FIG. 5B). Ten variants selected for individual evaluation also mediated intermediate levels of mRNA knockdown (FIG. 6B). Mapping the activities of constant region variants with single base substitutions onto the structure recapitulated known relationships between constant region structure and function (FIG. 5C).
The sequences in the library of modified constant regions were derived from the sgRNA (F+E) optimized sequence (23) modified to include a BlpI site (15). Each modified constant region was paired with 36 sgRNA targeting sequences (3 sgRNAs targeting each of 10 essential genes and six non-targeting negative control sgRNAs). The cloning strategy (described below) allowed the mutation of most positions in the sgRNA constant region. A variety of modifications were made, including substitutions of all single bases not in the BlpI restriction site (which is used for cloning), double substitutions including all substitutions at base-paired position pairs not before or in the BlpI site, and a variety of triple, quadruple, and sextuple substitutions, including base-pair-preserving substitutions at adjacent base-pairs.
The library was ordered and cloned in two parts. One part consisted of ˜100 modifications to the eight bases upstream of the BlpI restriction site. Constant region variants with mutations in this section were paired with each of the 36 targeting sequences, ordered as a pooled oligonucleotide library (Twist Biosciences), and cloned into pCRISPRia-v2 as described above. The second part consisted of ˜900 modifications to the 71 bases downstream of the BlpI restriction site. This part was cloned in two steps. First, all 36 targeting sequences were individually cloned into pCRISPRia-v2 as described above. The vectors were then pooled at an equimolar ratio and digested with BlpI (NEB) and XhoI (NEB). The modified constant region variants were ordered as a pooled oligonucleotide library (Twist Biosciences), PCR amplified with Phusion polymerase (NEB), digested with BlpI (NEB) and XhoI (NEB), and ligated into the digested vector pool, in a manner identical to previously published protocols and as described above, except for the different restriction enzymes.
Screens with the compact mismatched sgRNA library and the constant region library were conducted largely as described above, with smaller modifications during the screening procedure and an updated sequencing library preparation protocol. Briefly, the libraries were transduced in duplicate into K562 CRISPRi (both libraries) or HeLa CRISPRi cells (compact mismatched sgRNA library) as described above. K562 replicates were maintained separately in 0.15 to 0.3 L of RPMI-1640 in 0.3 L spinner flasks for the course of the screen. HeLa replicates were maintained in sets of ten 15-cm plates. Cells were selected with puromycin as described above (K562: 1 day of 0.75 μg/mL and 1 day of 0.85 μg/mL; HeLa: 2 days of 0.8 μg/mL and 1 day of 1 μg/mL). The remainder of the screen was carried out at >1000× library coverage (K562 compact mismatched sgRNA library: >2000×; HeLa compact mismatched sgRNA library: >1000×; K562 constant region library: >2000×). Multiple samples were harvested after 4 to 8 days of growth. For the drug screen, 10 μM lovastatin (ApexBio) or an equivalent volume of DMSO (vehicle) was added to flasks at t=0, and 3 days later cells were pelleted and re-suspended in fresh medium. Lovastatin (12 μM) or DMSO was again added after 5 and 9 days of growth, with media exchanges 3 days after drug supplementation. Multiple samples were harvested after 4 to 8 days for the K562 and HeLa growth screens. […]

Setting [1] is: activity relative to the un-modified constant region cr995.
The mark [2] stands for this setting: activity relative to the original, un-modified constant region cr995.

B1: cr640 (nucleic acid)
guide: GTTTAAGAGCTAAGCTGGAAACAGCATAGCAAGTTTAAATAAGGCTAGTCCGTTATCAACTTGAAAAAGTGGCCCAGAGTCTGGGCT
modifications: listed as DNA, chemistry not fully specified
In turn, B1 returned a Mean relative activity under setting [1] of 0.9186.

B2: cr256 (nucleic acid)
guide: GTTTAAGAGCTAAGCTGGAAACAGCATAACAAGTTTAAATAAGGCTAGTCCGTTATCAACTTGAAAAAGTGGCACCGAGTCGGTGCT
modifications: listed as DNA, chemistry not fully specified
In turn, B2 had a Mean relative activity under setting [1] of 0.9023.

B3: cr367 (nucleic acid)
guide: GTTTAAGAGCTAAGCTGGAAACAGCATAGCAAGTTTAAATAAGACTAGTTCGTTATCAACTCGAAAGAGTGGTACCGAGTCGGTACT
modifications: listed as DNA, chemistry not fully specified
The molecule B3 yielded a Mean relative activity under setting [1] of 0.8998.

B4: cr275 (nucleic acid)
guide: GTTTAAGAGCTAAGCTGGAAACAGCATAGCAAGTTTAAATAAGGCTAGTCCGTTATCAACCTGAAAAGGTGGGACAGAGTCTGTCCT
modifications: listed as DNA, chemistry not fully specified
Consider B4, for which the Mean relative activity under setting [2] stood at 1.06.

B5: cr409 (nucleic acid)
guide: GTTTAAGAGCTAAGCTGGAAAGAGCATAGCAAGTTTAAATAAGGCTAGTCCGTTATCAACTTGAAAAAGTGGCACCGAGTCGGTGCT
modifications: listed as DNA, chemistry not fully specified
For the molecule B5, under setting [1], the Mean relative activity is given as 0.9158.

B6: cr387 (nucleic acid)
guide: GTTTAAGAGCTAAGCTGGAAACAGCATAGCAAGTTTAAATAAGGCTCGTCCGTTATCAACTTGAAAAAGTGGCACCGAGTCGGTGCT
modifications: listed as DNA, chemistry not fully specified
The molecule B6 yielded a Mean relative activity under setting [1] of 0.9094.

B7: cr123 (nucleic acid)
guide: GTTTAAGAGCTAAGCTGGAAACAGCATAGCAAGTTTAAATAAGGCTAGTCCGTTATCAACGTGAAAAAGTGGCACCGAGTCGGTGCT
modifications: listed as DNA, chemistry not fully specified
As for B7, under setting [2], the Mean relative activity amounted to 0.8871.

B8: cr705 (nucleic acid)
guide: GTTTAAGAGCTAAGCTGGAAACAGCATAGCAAGTTTAAATAAGGCTAGTCCGTTATCAACTTGAAAAAGTGGCACGGAGTCCGTGCT
modifications: listed as DNA, chemistry not fully specified
In turn, B8 gave a Mean relative activity under setting [2] of 0.8901.

B9: cr702 (nucleic acid)
guide: GTTTAAGAGCTAAGCTGGAAACAGCATAGCAAGTTTAAATAAGGCTAGTCCGTTATCAACTTGAAAAAGTGCCACCGAGTCGGTGCT
modifications: listed as DNA, chemistry not fully specified
B9 showed a Mean relative activity under setting [2] of 0.8977.

B10: cr977 (nucleic acid)
guide: GTTTAAGAGCTAAGCTGGAAACAGCATAGCAAGTTTAAATAAGGCTAGTCCGTTATCATCTTGAAAAAGAGGCACCAAGTTGGTGCT
modifications: listed as DNA, chemistry not fully specified
With B10, the Mean relative activity under setting [1] stood at 0.9127.

B11: cr402 (nucleic acid)
guide: GTTTAAGAGCTAAGCTGGAAACTGCATAGCAAGTTTAAATAAGGCTAGTCCGTTATCAACTTGAAAAAGTGGCACCGAGTCGGTGCT
modifications: listed as DNA, chemistry not fully specified
Turning to B11, under setting [2], the Mean relative activity worked out at 0.8977.

B12: cr694 (nucleic acid)
guide: GTTTAAGAGCTAAGCTGGAAACAGCATAGCAAGTTTAAATAAGGCTAGTCCGGTATCAACTTGTAAAAGTGGCACCGAGTCGGTGCT
modifications: listed as DNA, chemistry not fully specified
B12 displayed a Mean relative activity under setting [2] of 0.8963.

B13: cr136 (nucleic acid)
guide: GTTTAAGAGCTAAGCTGGAAACAGCATAGCAAGTTTAAATAAGGTTAATCCGTTATCAACTTGAAAAAGTGGCGACGAGTCGTCGCT
modifications: listed as DNA, chemistry not fully specified
Under setting [1], B13 came in with a Mean relative activity of 0.9172.

B14: cr503 (nucleic acid)
guide: GTTTAAGAGCTAAGCTGGAAACAGCATAGCAAGTTTAAATAAGGCTAGTCCGTTATCAACTTGAAAAAGTGGCACCGAGTCGGGGCT
modifications: listed as DNA, chemistry not fully specified
On to B14, for which, under setting [1], the Mean relative activity was 0.9079.

B15: cr013 (nucleic acid)
guide: GTTTGAGAGCTAAGCTGGAAACAGCATAGCAAGTTTAAATAAGGCTAGTCCGTTATCAACTTGAAAAAGTGGCACCGAGTCGGTGCT
modifications: listed as DNA, chemistry not fully specified
B15 registered a Mean relative activity under setting [2] of 0.8907.

B16: cr206 (nucleic acid)
guide: GTTTAAGAGCTAAGCTGGAAACAGCATAGCAAGTTTAAATAAGGCTAGTCCGTTATCAACCTGAAAAAGTGGCACCGACTCGGTGCT
modifications: listed as DNA, chemistry not fully specified
Molecule B16 displayed a Mean relative activity under setting [2] of 0.8946.

B17: cr141 (nucleic acid)
guide: GTTTAAGAGCTAAGCTGGAAACAGCATAGCAAGTTTAAATAAGGCCAGTCCGTTATCAACTTGAGAAAGTGGCACCGAGTCGGTGCT
modifications: listed as DNA, chemistry not fully specified
In turn, B17 registered a Mean relative activity under setting [1] of 0.9018.

B18: cr488 (nucleic acid)
guide: GTTTAAGAGCTAAGCTGGAAACAGCATAGCAAGTTTAAATAAGGCTAGTCCGTTATCAACTTGAAAAAGTGGGACCGAGTCGGTCCT
modifications: listed as DNA, chemistry not fully specified
With B18, under setting [2], the Mean relative activity turned out to be 1.06.

B19: cr777 (nucleic acid)
guide: GTTTAAGAGCTAAGCTGGAAACAGCATAGCAAGTTTAAATAAGGCTAGTCCGGTATCAACTTGAAAAAGTGGCACCGAGTCGGTGCT
modifications: listed as DNA, chemistry not fully specified
In the case of B19, the Mean relative activity under setting [1] is listed as 0.9022.

B20: cr520 (nucleic acid)
guide: GTTTAAGAGCTAAGCTGGAAACAGCATAGCAAGTTTAAATAAGGCTAGTCCGATATCAACTTGCAAAAGTGGCACCGAGTCGGTGCT
modifications: listed as DNA, chemistry not fully specified
As to B20, the Mean relative activity under setting [2] amounted to 0.8874.

B21: cr863 (nucleic acid)
guide: GTTTAAGAGCTAAGCTGGAAACCGCATAGCAAGTTTAAATAAGGCTAGTCCGTTATCAACTTGAAAAAGTGGCACCGAGTCGGTGCT
modifications: listed as DNA, chemistry not fully specified
For the molecule B21, under setting [1], the Mean relative activity was found to be 0.9031.

B22: cr910 (nucleic acid)
guide: GTTTAAGAGCTAAGCTGGAAACAGCATAGCAAGTTTAAATAAGGCTAGTCCGTTATCAACTTGAAAAAGTGGAACGGAGTCCGTTCT
modifications: listed as DNA, chemistry not fully specified
B22 gave a Mean relative activity under setting [1] of 0.9171.

B23: cr626 (nucleic acid)
guide: GTTTAAGAGCTAAGCTGGAAACAGCATAGCAAGTTTAAATAAGGCTAGTCCGTTATCAACTTGACAAAGTGGCACCGCGTCGGTGCT
modifications: listed as DNA, chemistry not fully specified
With B23, the Mean relative activity under setting [1] is recorded as 0.9006.
